The text below walks through data of patent publication US20230295310A1 (ABCELLERA BIOLOGICS, published 2023).

Experiment [1] addresses T1, cynomolgus monkey CD3 expressed on cyno primary T cells (cynomolgus monkey, UniProt Q95LI5 22-198; Q95LI8 22-171; Q95LI7 23-181).
T1 construct: whole, on cells; CD3 complex on purified cynomolgus monkey CD3 pan T cells; also called cyno CD3
Kind of experiment: flow cytometry, cyno primary T cells. On the procedure:
(§1) Purified antibodies were confirmed to bind CD3 expressed on cells using the CytoFLEX S or LX flow cytometers (Beckman Coulter). Antibodies were diluted to 25 nM in FACS buffer (PBS+2% FBS) and were incubated with CD3-expressing cells for 30 minutes at 4° C. […] The median fluorescence intensity of the binding signal for each antibody was normalized to the isotype control to obtain a fold over isotype value. An antibody with a fold over isotype (FOI) of ≥10 was considered to be positive for binding.
For orientation: Flow cytometry measures light scatter and fluorescence of single cells or particles in a stream.

The target in experiment [2] is T2, cynomolgus monkey CD3 expressed on primary T cells (cynomolgus monkey, UniProt Q95LI5 22-198; Q95LI8 22-171; Q95LI7 23-181).
T2 construct: whole, on cells; CD3 complex on purified cynomolgus monkey T cells; also called cyno CD3
Kind of experiment: flow cytometry, 25 nM, cyno primary T cells. The procedure: as §1

T1 sequence (Q95LI5 22-198, chain 1 of 3): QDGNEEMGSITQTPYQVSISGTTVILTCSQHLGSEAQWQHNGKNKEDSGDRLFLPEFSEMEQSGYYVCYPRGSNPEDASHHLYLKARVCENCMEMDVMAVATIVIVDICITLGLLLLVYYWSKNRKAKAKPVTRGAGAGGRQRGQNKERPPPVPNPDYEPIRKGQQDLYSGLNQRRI
T1 sequence (Q95LI8 22-171, chain 2 of 3): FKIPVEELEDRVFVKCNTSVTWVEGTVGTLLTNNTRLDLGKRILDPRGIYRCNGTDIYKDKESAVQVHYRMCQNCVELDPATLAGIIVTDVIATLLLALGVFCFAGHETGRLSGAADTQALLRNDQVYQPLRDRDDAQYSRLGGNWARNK
T1 sequence (Q95LI7 23-181, chain 3 of 3): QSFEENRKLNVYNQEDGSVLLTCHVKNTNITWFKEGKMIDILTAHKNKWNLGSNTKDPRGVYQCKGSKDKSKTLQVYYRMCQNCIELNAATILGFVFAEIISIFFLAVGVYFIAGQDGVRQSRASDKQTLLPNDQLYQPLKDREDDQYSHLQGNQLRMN
T2 sequence (Q95LI5 22-198, chain 1 of 3): as the sequence (Q95LI5 22-198, chain 1 of 3) above
T2 sequence (Q95LI8 22-171, chain 2 of 3): as the sequence (Q95LI8 22-171, chain 2 of 3) above
T2 sequence (Q95LI7 23-181, chain 3 of 3): as the sequence (Q95LI7 23-181, chain 3 of 3) above

B1: mAb 272 (antibody, V domains shown)
VH: EIQLVESGGGLVQPGESLKLSCAGSGFTFSVSAMHWVRQASGKGLEWVGRIRNKANSYATAYAASVKGRFTLSRDDSKNTAYLQMNSLKTEDTAVYYCSSYYYLSGTYYNYWGQGTLVTVSS
VL: DIQMTQSPSSLSASVGDRVTITCRASQVIRNDLGWYQQKPGKAPKRLIHSASSLQGGVPSRFSGSGSGTEFTLTISSLQPEDFATYYCQQHNVNPCTFGQGTKLEIK
notes: VH/VL only
For the molecule B1, the binding result in experiment [1] was “no binding (tested: FOI <10 (FOI >=10 = positive); 25 nM)”.

B2: mAb 271 (antibody, V domains shown)
VH: EIQLVESGGGLVQPGESLKLSCAGSGFTFSVSAMHWVRQASGKGLEWVGRIRNKANSYATAYAASVKGRFTLSRDDSKNTAYLQMDSLKTEDTAVYYCSSYYYLSGTYYNYWGQGTLVTVSS
VL: DIQMTQSPSSLSASVGDRVTITCRASQVIRNDLGWYQQKPGKAPKRLIHSASSLQGGVPSRFSGSGSGTEFTLTISSLQPEDFATYYCQQHNVNPCTFGQGTKLEIK
notes: VH/VL only
On to B2, for which the binding result in experiment [1] is listed as “no binding (tested: FOI <10 (FOI >=10 = positive); 25 nM)”.

B3: mAb 270 (antibody, V domains shown)
VH: EIQLVESGGGLVQPGESLKLSCAGSGFTFSVSAMHWVRQASGKGLEWVGRIRNKANSYATAYDASVKGRFTLSRDDSRNTAYLQMNSLKTEDTAVYYCSSYYYLSGTYYNYWGQGTLVTVSS
VL: DIQMTQSPSSLSASVGDRVTITCRASQVIRNDLGWYQQKPGKAPKRLIHSASSLQGGVPSRFSGSGSGTEFTLTISSLQPEDFATYYCQQHNVNPCTFGQGTKLEIK
notes: VH/VL only
On to B3, for which, in experiment [1], the binding result is given as “no binding (tested: FOI <10 (FOI >=10 = positive); 25 nM)”.

B4: mAb 234 (antibody, V domains shown)
VH: QEQLVESGGGVVQPGRSLRLSCAASGFIFSSYGMHWVRQAPGKGLEWVAIIWYNGKKRDYADSVKGRFTISRDNSKNTLYLQMNSLRVEDTAVYYCARGLGYNWFDSWGQGTLVTVSS
VL: EIVLTQSPDFQSVTPKEKVTITCRASQSIGSSLHWYQQKPDQSPKLLIKYASQSFSGVPSRFSGSGSGTDFTLTINSLEAEDAATYYCHQSSSLPYTFGQGTKLEIK
notes: VH/VL only
Consider B4, for which the binding result in experiment [1] is given as “no binding (tested: FOI <10 (FOI >=10 = positive); 25 nM)”.

B5: mAb 235 (antibody, V domains shown)
VH: QGKLVESGGGVVQPGRSLRLSCVASGFTFSGYGMHWVRQAPNKGLEWVAIIYYDGKNKYYADSVKGRFTVSRDNSKNTLYLQLNNLRAEDTAVYYCVRGPGYNWFDPWGQGTLVTVSS
VL: EIVLTQSPDFQSVTPKEKVTITCRASQNIGSSLHWYQQKPDQSPKLFIKHASQSFSGVPSRFSGSGSGTDFTLTINSLEAEDAATYYCHQSSSLPYTFGQGTKLEIK
notes: VH/VL only
B5: the binding result in experiment [1] is recorded as “no binding (tested: FOI <10 (FOI >=10 = positive); 25 nM)”.

B6: mAb 233 (antibody, V domains shown)
VH: QGKLVESGGGVVQPGRSLRLSCVASGFTFSGYGMHWVRQVPNKGLEWVAIIYYDGKNKYYADSVKGRFTISRDNSKNMLYLQMNSLRAEDTAVYYCVRGPGYNWFDPWGQGTLVTVSS
VL: EIVLTQSPDFQSVTPKEKVTITCRASQNIGSSLHWYQQKPDQSPKLLIKLTSQSFSGVPSRFSGSGSGTDFTLTINSLEAEDAATYYCHQSSSLPYTFGQGTKLEIK
notes: VH/VL only
As to B6, the binding result in experiment [1] is listed as “no binding (tested: FOI <10 (FOI >=10 = positive); 25 nM)”.

B7: mAb 243 (antibody, V domains shown)
VH: QGKLVESGGGVVQPGRSLRLSCVASGFTFSGYGMHWVRQAPNKGLEWVAIIYYDGKNKYYADSVKGRFTISRDNSKNMLYLQMNSLRVEDTAVYYCVRGPGYNWFDPWGQGTLVTVSS
VL: EIVLTQSPDFQSVTPKEKVTITCRASQNIGSSLHWYQQKPDQSPKLLIKHTSQSFSGVPSRFSGSGSGTAFTLTINSLEAEDAATYYCHQSSSLPYTFGQGTKLEIK
notes: VH/VL only
For B7, the binding result in experiment [1] is on record as “no binding (tested: FOI <10 (FOI >=10 = positive); 25 nM)”.

B8: mAb 245 (antibody, V domains shown)
VH: QVKLVESGGGVVQPGRSLRLSCVASGFTFSGYGMHWVRQAPGKGLEWVAIIYYDGKNKYYVDSVKGRFTISRDNSKNTLYLQLNSLRAEDTAVYYCVRGPGYNWFDLWGQGTLVTVAS
VL: EIVLTQSPDFQSVTPKEKVTITCRASQSIGSSLHWYQQKPDQSPKLLIKYASQSFSGVPSRFSGSGSGTDFTLTINSLEAEDAATYYCHQSSSLPYTFGQGTKLEIK
notes: VH/VL only
Take B8: the binding result in experiment [1] is “no binding (tested: FOI <10 (FOI >=10 = positive); 25 nM)”.

B9: mAb 236 (antibody, V domains shown)
VH: QVKLVESGGGVVQPGRSLRLSCVASGFTFSGYGMHWVRQAPGKGLEWVAIIYYDGKNKYYADSAKGRFTVSRDNSKNTLYLQLNSLRAEDTAVYYCVRGPGYNWFDSWGQGTLVTVSS
VL: EIVLTQSPDFQSVTPKEKVTITCRASQSIGSNLHWYQQKPDQSPKLLIKYTSQSFSGVPSRFSGSGSGTDFTLTINSLEAEDAATYYCHQSSSLPYTFGQGTKLEIK
notes: VH/VL only
For the molecule B9, in experiment [1], the binding result is reported as “no binding (tested: FOI <10 (FOI >=10 = positive); 25 nM)”.

B10: mAb 242 (antibody, V domains shown)
VH: QGKLVESGGGVVQPGRSLRLSCVASGFTFSGYGMHWVRQVPNKGLEWVAIIYYDGKNKYYADSVKGRFTISRDNSKNMLYLQMNSLRVEDTAVYYCVRGPGYNWFDPWGQGTLVTVSS
VL: EIVLTQSPDFQSVTPKEKVTITCRASQNIGSSLHWYQQKPDQSPKLLIKLTSQSFSGVPSRFSGSGSGTDFTLTINSLEAEDAATYYCHQSSSLPYTFGQGTKLEIK
notes: VH/VL only
For B10, the binding result in experiment [1] was “no binding (tested: FOI <10 (FOI >=10 = positive); 25 nM)”.

B11: mAb 239 (antibody, V domains shown)
VH: QEKLVESGGGVVQPGRSLRLSCVASGFTFSGFGMHWVRQAPGKGLEWVAIIYYDGKNKYYADSVKGRFTISRDNSKNTLYLQMNSLRAEDTAVYYCVRGPGYNWFDPWGQGTLVTVSS
VL: EIVLTQSPDFQSVTPKEKVTITCRASQSIGSSLHWYQQKPDQSPKLLIKYASQSFSGVPSRFSGSGSGTDFTLTINSLEAEDAATYYCHQSSSLPYTFGQGTKLEIK
notes: VH/VL only
In the case of B11, in experiment [1], the binding result is “no binding (tested: FOI <10 (FOI >=10 = positive); 25 nM)”.

B12: mAb 241 (antibody, V domains shown)
VH: QEQLVESGGGVVQPGRSLRLSCAASGFIFSSYGMHWVRQAPGKGLEWVAIIWYNGKKRDYADSVKGRFTISRDNSKNTLYLQMNSLRAEDTAVYYCARGLGYNWFDPWGQGTLVTVSS
VL: AIVLTQSPDFQSVTPKEKVTITCRASQNIGSSLHWYQQKPDQSPKLLIKYASQSFSGVPSRFSGSGSGTDFTLTINSLEAEDAATYYCHQSGSLPYTFGQGTKLEIK
notes: VH/VL only
For the molecule B12, the binding result in experiment [1] is given as “no binding (tested: FOI <10 (FOI >=10 = positive); 25 nM)”.

B13: mAb 246 (antibody, V domains shown)
VH: QEQLVESGGGVVQPGRSLRLSCAASGFTFRSYGMHWVRQAPGKGLEWVAIIWYDGKNKYYADSVKGRFTISRDNSKNTLYLQMNSLRAEDTAVYYCARGLGYNWFDPWGQGTLVTVSS
VL: EIVLTQSPDFQSVTPKEKVTITCRASQSIGSSLHWYQQKPDQSPKLLIKYGSQSFSGVPSRFSGSGSGTDFTLTINSLEAEDAATYYCHQSSSLPYTFGQGTKLEIK
notes: VH/VL only
Regarding B13, the binding result in experiment [1] is “no binding (tested: FOI <10 (FOI >=10 = positive); 25 nM)”.

B14: mAb 247 (antibody, V domains shown)
VH: QEQLVESGGGVVQPGRSLRLSCAASGFIFSSYGMHWVRQAPGKGLEWVAIIWYNGKKRDYADSVKGRFTISRDNSKNTLYLQMNSLRAEDTAVYYCARGLGYNWFDPWGQGTLVTVSS
VL: EIVLTQSPDFQSVTPKDKVTITCRASQSIGSSLHWYQQKPDQSPKLLIKYASQSFSGVPSRFSGSGSGTDFTLTINSLEAEDAATYYCHQSSTLPYTFGQGTKLEIK
notes: VH/VL only
Consider B14, for which the binding result in experiment [1] is “no binding (tested: FOI <10 (FOI >=10 = positive); 25 nM)”.

B15: mAb 249 (antibody, V domains shown)
VH: QEQLVESGGGVVQPGRSLRLSCAASGFTFRSYGMHWVRQAPGKGLEWVAIIWYDGKNKYYADSVKGRFTISRDNSKNTLYLQMNSLRAEDTAVYYCARGLGYNWFDPWGQGTLVTVSS
VL: EIVLTQSPDFQSVTPKEKVTITCRASQSIGSSLHWYQQKPDQSPKLLIKYASQSFSGVPSRFSGSGSGTDFTLTINSLEAEDAATYYCHQSSSLPYTFGQGTKLEIK
notes: VH/VL only
On to B15, for which the binding result in experiment [1] is listed as “no binding (tested: FOI <10 (FOI >=10 = positive); 25 nM)”.

B16: mAb 244 (antibody, V domains shown)
VH: QEQLVESGGGVVQPGRSLRLSCAASGFTFRSYGMHWVRQAPGKGLEWVAIIWYDGKNKYYADSVKGRFTISRDNSKNTLYLQMNSLRVEDTAVYYCARGLGYNWFDPWGQGTLVTVTS
VL: EIVLTQSPDFQSVTPKEKVTITCRASQSIGSSLHWYQQKPDQSPKLLIKYASQTFSGVPSRFSGSGSGTDFTLTINSLEVEDAATYYCHQSSSLPNTFGQGTKLEIK
notes: VH/VL only
In the case of B16, in experiment [1], the binding result is “no binding (tested: FOI <10 (FOI >=10 = positive); 25 nM)”.

B17: mAb 90 (antibody, V domains shown)
VH: EVQLVESGGGLVQPGGSLKLSCAASGFTFSGSAMHWVRQASGKGLEWVGRIRTKPNSYATSYAASVKDRFTISRDDSKNTAYLQMNSLKTEDTAVYYCIRGELEPWGQGTLVTVSS
VL: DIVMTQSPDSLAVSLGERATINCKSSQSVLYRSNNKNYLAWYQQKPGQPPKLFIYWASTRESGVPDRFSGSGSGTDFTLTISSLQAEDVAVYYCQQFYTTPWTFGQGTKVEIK
As to B17, the binding result in experiment [2] was “no binding (tested: FOI >=10 = positive)”.

B18: mAb 265 (antibody, V domains shown)
VH: EVQLLESGGGLVQPGGSLRLSCAASGFTFRSSSMTWVRQAPGKGLEWVSGIRGSGGRTYDAESVKGRFTISRDNSKNTLYLQMNSLRAEDTAEYFCAKLYDYYNDYMDVWGKGTTVTVSS
VL: SYELTQPLSVSVALGQTARITCGGNNIGSKNVHWYQQKPGQAPVLVIYRDSNRPSGIPERFSGSNSGNTATLTISRAQAGDEADYYCQVWDSSTAVFGGGTQLTAL
notes: VH/VL only
As for B18, the binding result in experiment [1] is “no binding (tested: FOI <10 (FOI >=10 = positive); 25 nM)”.

B19: mAb 152 (antibody, V domains shown)
VH: QVQLVQSGAEVKKPGASVKVSCKASGYTFTAYHTHWVRQAPGQGLEWMGWIYPKSGRTTYTQKFQGRVTMTRDTSISTVYMELSRLKSDDTAVYYCARVGALLFDYWGQGTLVTVSS
VL: not shown
Turning to B19, the binding result in experiment [2] is given as “no binding (tested: FOI >=10 = positive)”.
